According to patent US20200033363A1 (GARVAN INSTITUTE OF MEDICAL RESEARCH, published 2020):

How the values were obtained:
[1] = molecular target: T1, human VEGFB (human, UniProt P49765-2 22-188, limits assumed); experiment: biolayer interferometry
T1 sequence (looked up): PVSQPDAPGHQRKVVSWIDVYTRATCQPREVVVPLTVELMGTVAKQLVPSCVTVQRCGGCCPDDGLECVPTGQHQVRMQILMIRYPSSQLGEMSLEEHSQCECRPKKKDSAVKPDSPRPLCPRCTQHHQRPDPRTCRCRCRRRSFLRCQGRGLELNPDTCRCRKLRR

[2] = molecular target: T2, mouse VEGFA164 (mouse, UniProt Q00731-2 27-190); experiment: biolayer interferometry
T2 sequence (looked up): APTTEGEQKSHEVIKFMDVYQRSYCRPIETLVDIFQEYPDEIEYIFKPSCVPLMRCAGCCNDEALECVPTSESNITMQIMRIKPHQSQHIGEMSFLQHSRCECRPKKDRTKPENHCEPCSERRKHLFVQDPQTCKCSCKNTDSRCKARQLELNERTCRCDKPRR

[3] = molecular target: T3, human PlGF (human, UniProt P49763-2 19-149, limits assumed); experiment: biolayer interferometry
T3 sequence (looked up): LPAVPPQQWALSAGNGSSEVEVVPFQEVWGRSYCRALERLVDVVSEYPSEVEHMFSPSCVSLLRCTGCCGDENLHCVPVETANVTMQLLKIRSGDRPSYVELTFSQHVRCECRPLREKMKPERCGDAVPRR

[4] = molecular target: T4, human VEGFA 121 (human, UniProt P15692-9 27-147, biotinylated (BLI assays)); experiment: bio-layer interferometry on immobilised VEGF (biotinylated VEGFA 121 by paragraph 199)
T4 construct: also called biotinylated VEGF
T4 sequence (looked up): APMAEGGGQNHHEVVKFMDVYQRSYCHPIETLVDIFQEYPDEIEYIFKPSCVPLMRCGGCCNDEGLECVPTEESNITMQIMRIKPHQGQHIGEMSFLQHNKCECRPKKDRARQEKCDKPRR

[5] = molecular target: T4, human VEGFA 121; experiment: biolayer interferometry, generally the same method as for Ig5 and Ig12; immobilized biotinylated VEGF
[6] = molecular target: T5, hen egg-white lysozyme (HEL) (hen, UniProt P00698 19-147); experiment: biolayer interferometry (Example 5); printed as 'Affinity (nM)' in Table 4
T5 construct: Bought protein; It was biotinylated for phage selection; In BLI it was captured through biotinylated HyHEL-10 or HyHEL-5 Fab; also called hen egg white lysozyme antigen
T5 sequence (P00698 19-147): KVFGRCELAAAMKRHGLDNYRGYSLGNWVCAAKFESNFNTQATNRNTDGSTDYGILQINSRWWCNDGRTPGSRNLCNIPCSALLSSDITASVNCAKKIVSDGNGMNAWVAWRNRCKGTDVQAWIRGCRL

[7] = molecular target: T5, hen egg-white lysozyme (HEL); experiment: biolayer interferometry (BLItz); HEL captured by biotinylated HyHEL-10 Fab on streptavidin sensors; Ig5 at 2000, 1000, 500 nM
[8] = molecular target: T5, hen egg-white lysozyme (HEL); experiment: printed as 'Affinity (nM)' in Table 4; method not given; differs from the 30 nM of Example 5
[9] = molecular target: T5, hen egg-white lysozyme (HEL); experiment: biolayer interferometry (BLItz); HEL captured by biotinylated HyHEL-5 Fab on streptavidin sensors; Ig12 at 1000, 750, 375 nM

B1: VLD9 fused to mouse IgG2c hinge-Fc region (VLD9-Fc, long native hinge) (Fc fusion)
chain: DIQMTQSPSSLSASVGDRVTITCRASRAIAAYLNWYQQKPGKAPKLLIYAYSDLQSGVPSRFSGSGSGTDFTLTISSLQPEDFATYYCQQVWANPYTFGQGTKVEIKRA
notes: domain: hinge and Fc region; Expressed in Expi293 cells; also called VLD9-Fc native hinge; VLD9-Fc fusion protein; not shown: Mouse IgG2c hinge and Fc region
binding result [1]: no binding | Kd [2]: < 10 nM | binding result [3]: no binding | Kd [4]: ~3 nM

B2: VLD9 homodimer (other)
VL: DIQMTQSPSSLSASVGDRVTITCRASRAIAAYLNWYQQKPGKAPKLLIYAYSDLQSGVPSRFSGSGSGTDFTLTISSLQPEDFATYYCQQVWANPYTFGQGTKVEIKRA
notes: Homodimer of two identical human light chain variable domains selected on VEGF; Expressed generally as Ig5 and Ig12 were; also called VLD9 dimer; immunoglobulin VLD9
Kd [5]: < 10 nM

B3: immunoglobulin homodimer Ig5 (other)
VL: DIQMTQSPSSLSASVGDRVTITCRASQDIAAALNWYQQKPGKAPKLLIYASSYLQSGVPSRFSGSGSGTDFTLTISSLQPEDFATYYCQQDGYYPATFGQGTKVEIKR
notes: also called VL5; Ig52
Kd [6]: 130 nM | koff [7]: 0.0057 s⁻¹ | kon [7]: 43000 M⁻¹ s⁻¹

B4: immunoglobulin homodimer Ig12 (other)
VL: DIQMTQSPSSLSASVGDRVTITCRASQDIASDLNWYQQKPGKAPKLLIYSDSYLQSGVPSRFSGSGSGTDFTLTISSLQPEDFATYYCQQYYMIPSTFGQGTKVEIKR
notes: Homodimer of two identical human Vkappa1 light chain variable domains, expressed in E. coli and purified on Protein L. Structure with HEL is PDB 4N1C; also called VL12; Ig122
Kd [8]: 64 nM | Kd [9]: 30 nM | koff [9]: 0.0025 s⁻¹ | kon [9]: 84000 M⁻¹ s⁻¹
